The source of these data is the supplement of paper PMC10126150.

The subject of this data set is ATP. The data set can be described thus: switch fluorescence ratio, 500 uM ATP over buffer (Cy3 cluster intensity, sum of 5 cycles each) (fold (ratio)); higher = stronger signal-on switching upon ATP binding; sequences stand for … in TCGTCGGCAGCGTCAGATGTGTATAAGAGACAGTTTTTTTTTTTTTTTTTTTTTTTTT…TC. The settings on record: aptamer strand: ATP DNA aptamer (quencher-CACCTGGGGGAGTATTGCGGAGGAAGG + anchor), 100 nM annealed; ATP concentration: 500 uM. An outline of the steps:
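Imaging in selection buffer was followed by imaging after 15 min with 500 uM ATP at 22 °C, for Cy3-labelled switching-strand clusters annealed to 100 nM quencher-labelled ATP aptamer on a modified Illumina MiSeq flow-cell. Five of these buffer/ATP cycles ran, separated by NaOH stripping and re-annealing. The fluorescence ratio per cluster is summed target-cycle over summed buffer-cycle Cy3 intensity, averaged per switch-domain sequence; clusters outside 100-1000 RFU were removed.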

± gives the standard deviation of the averaged measurements.
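Note: ATP exposure 15 min at 22 °C before imaging.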

Turning to TTATGCGTTT, the switch fluorescence ratio amounted to 1.2 ± 0.28.
For TTATGCTTGG, the switch fluorescence ratio was 0.976 ± 0.031.
The figure for TTATGGACCT is 1.331 ± 0.0094; for TTATGGGAA it is 1.04 ± 0.038.
Consider TTATGGGGCG, for which the switch fluorescence ratio turned out to be 1.02 ± 0.035.
In the case of TTATGGGTCA, the switch fluorescence ratio turned out to be 0.983 ± 0.025.
Consider TTATGTGGGT, for which the switch fluorescence ratio worked out at 0.989 ± 0.029.
For the sequence TTATGTTAGG, the switch fluorescence ratio was found to be 0.97498 ± 0.00083.
The figure for TTATGTTCGA is 1.018 ± 0.005; for TTATTAAAAT it is 0.997 ± 0.021; for TTATTAAATC it is 1.008 ± 0.0064.
The figure for TTATTAAGCT is 1.01 ± 0.027; for TTATTACGG it is 1 ± 0.027.
Consider TTATTAGGGG, for which the switch fluorescence ratio came out at 0.983 ± 0.028.
TTATTAGTGA: the switch fluorescence ratio was 0.9904 ± 0.006.
The figure for TTATTATTGG is 0.986 ± 0.013.
Consider TTATTCAAAA, for which the switch fluorescence ratio amounted to 1 ± 0.023.
The result for TTATTCGGTT reads 0.982 ± 0.031; that for TTATTCGTTG, 0.99 ± 0.025; that for TTATTCTTGT, 1 ± 0.017.
Turning to TTATTGGAAT, the switch fluorescence ratio was 1 ± 0.063.
As for TTATTGGGGA, the switch fluorescence ratio amounted to 0.974 ± 0.024.
Take TTATTGGTGT: the switch fluorescence ratio came to 1.01 ± 0.024.
TTATTGTTAG: the switch fluorescence ratio worked out at 0.9784 ± 0.0027.
The figure for TTATTTAAAA is 1 ± 0.02; for TTATTTAAAG it is 1.018 ± 0.0024; for TTATTTAATC it is 1.01 ± 0.038.
For the sequence TTATTTAGCA, the switch fluorescence ratio is 0.987 ± 0.038.
Consider TTATTTCAAG, for which the switch fluorescence ratio is 1.01 ± 0.064.
The figure for TTATTTCATT is 0.9966 ± 0.0062; for TTATTTCCGG it is 1.01 ± 0.028; for TTATTTGGA it is 0.98 ± 0.04.
With TTATTTGGAT, the switch fluorescence ratio worked out at 0.9897 ± 0.005.
The figure for TTATTTGGGA is 0.991 ± 0.043.
The result for TTATTTTATT reads 0.998 ± 0.021; that for TTATTTTCAT, 1 ± 0.025.
The figure for TTATTTTCGA is 0.999 ± 0.021.
On to TTATTTTTA, for which the switch fluorescence ratio turned out to be 0.9699 ± 0.0017.
Consider TTATTTTTGA, for which the switch fluorescence ratio stood at 1.07 ± 0.096.
In the case of TTATTTTTTG, the switch fluorescence ratio is 1 ± 0.056.
The result for TTCAAAAAGT reads 0.991 ± 0.021; that for TTCAAAATTA, 0.9913 ± 0.0096.
As to TTCAAAGGGT, the switch fluorescence ratio amounted to 1.005 ± 0.0049.
Turning to TTCAACATTT, the switch fluorescence ratio is 1.04 ± 0.011.
As to TTCAACGGGG, the switch fluorescence ratio is 0.9948 ± 0.0039.
TTCAACTTTT: the switch fluorescence ratio is 1.01 ± 0.056.
The result for TTCAAGGGGA reads 1.06 ± 0.13.
The result for TTCAAGGTA reads 1.01 ± 0.015.
In the case of TTCAATCATG, the switch fluorescence ratio is 0.988 ± 0.011.
For the sequence TTCAATGGTT, the switch fluorescence ratio was 1.02 ± 0.035.
In the case of TTCAATTTAG, the switch fluorescence ratio amounted to 0.9954 ± 0.0042.
As to TTCAATTTTT, the switch fluorescence ratio amounted to 0.997 ± 0.021.
The result for TTCACAGCCA reads 1.09 ± 0.043; that for TTCACATTTT, 0.9961 ± 0.0026.
The figure for TTCACCGGGA is 0.9932 ± 0.007; for TTCACTAGTG it is 1.02 ± 0.035; for TTCACTGATG it is 1.05 ± 0.017.
The result for TTCACTGGGA reads 0.9962 ± 0.00098; that for TTCACTGGTC, 1.019 ± 0.0011.
On to TTCACTTAGC, for which the switch fluorescence ratio was 1.075 ± 0.0076.
Regarding TTCAGAAAGG, the switch fluorescence ratio is 1 ± 0.023.
The figure for TTCAGAAGTC is 1.01 ± 0.056.
The result for TTCAGACCGT reads 1.016 ± 0.0064; that for TTCAGAGGGG, 0.997 ± 0.033.
For the sequence TTCAGAGTCA, the switch fluorescence ratio stood at 0.985 ± 0.042.
TTCAGCAATT: the switch fluorescence ratio was found to be 1.57 ± 0.31.
The result for TTCAGCGCGC reads 1.007 ± 0.0075.
